# Experiment: soluble on expression in E. coli; label from the status in PepcDB or PDB records
row,Sequence,soluble on expression in E. coli
1,TIVDLEDNVLVIGFGRFSQIVCQTLLIRGISVSVIDRNIENIRAAAKFGFKVYYGDGIRLDVLRAAGIEKAKCVVLGINDTQRIEHIVSQMKEAYPNLPILTRTYDRKTTVSLIKQDVDFIVRETFESAITLSRATLMKLGID,not soluble
2,TKDLPIHACSYCGIHDPACVVYCNTSKKWFCNGRGNTSGSHIVNHLVRAKCKEVTLHKDGPLGETVLECYNCGCRNVFLLGFIPAKADSVVVLLCRQPCASQSSLKDINWDSSQWQPLIQDRCFLSWLVKIPSEQEQLRARQITAQQINKLEELWKENPSATLEDLEKPGVDEEPQHVLLRYEDAYQYQNIFGPLVKLEADYDKKLKESQTQDNITVRWDLGLNKKRIAYFTLPKTDSDMRLMQGDEICLRYKGDLAPLWKGIGHVIKVPDNYGDEIAIELRSSVGAPVEVTHNFQVDFVWKSTSFDRMQSALKTFAVDETSVSGYIYHKLLGHEVEDVIIKCQLPKRFTAQGLPDLNHSQVYAVKTVLQRPLSLIQGPPGTGKTVTSATIVYHLARQGNGPVLVCAPSNIAVDQLTEKIHQTGLKVVRLCAKSREAIDSPVSFLALHNQIRNMDSMPELQKLQQLKDETGELSSADEKRYRALKRTAERELLMNADVICCTCVGAGDPRLAKMQFRSILIDESTQATEPECMVPVVLGAKQLILVGDHCQLGPVVMCKKAAKAGLSQSLFERLVVLGIRPIRLQVQYRMHPALSAFPSNIFYEGSLQNGVTAADRVKKGFDFQWPQPDKPMFFYVTQGQEEIASSGTSYLNRTEAANVEKITTKLLKAGAKPDQIGIITPYEGQRSYLVQYMQFSGSLHTKLYQEVEIASVDAFQGREKDFIILSCVRANEHQGIGFLNDPRRLNVALTRARYGVIIVGNPKALSKQPLWNHLLNYYKEQKVLVEGPLNNLRESLMQFS,soluble
3,TKEHRAAARKIAGESFVLLKNEGLSPTLAPVLPLSPTGTIAVIGPLANTRSNMPGTWSVAAVLDKSPSLVEGLTEWVGNQGKILYAKGSNLIGDAAYEERATMFGRSLNRDNRTDQQLLDEALKIASQADVIVAALGESSEMSGESSSRTNLNLPDVQHTLLEALLKTGKPVVLVLFTGRPLVLNWEQEHVPAILNVWFGGSEAGPAIGDVLFGAVNPGGKLTMTFPKSVGQIPLYYAHKNTGRPLKEGKWFEKFRSNYLDVDNDALYPFGYGLSYTTF,not soluble
4,TLANNRVRLLVNGEASFEAMFKAISAARQVILVQFFIVRDDALGQRLQQLLLERAANGVEVFFLYDAIGSHALPHRYVERLRQGGVQMHGFSTGSGMLNRFQVNFRNHRKVVVVDGECGFVGGHNVGVEYLGEKPPLAPWRDTHMELRGPAVACLQESFAEDWYWATHSLPPLILPPQYDSEGALCQVVASGPA,not soluble
5,TMEIPINRTYSCFLEGPEAPKTPACQAAKQAGGTQAMYDWNGINQNPSGDNHQAVVPDGTLCGGGKAEFKGFNLAREDWRTTNIVPDANGNYEFIYKATAPHATKYFKFYVTKNGWNPTQALKWSDLELFGTVNGNPQQDAGKRYHMTLKLPQGKTGKHIIFNVWKRSDSEEAFYSCSDVNFGG,not soluble
6,TPPSGSGNWESLFNGLYRLQQRQRRKRKELTNLIRRFRNGAESLPDAVVVFRAEGNIVWCNRLAQHLLGFHWPEDSGQPISNLIRTPDFIKYLNKKDFSEPLEMRSPLNVERMLELRIVPYTEGEHLMVVRD,not soluble
7,TRGLNFSVEFTGGTVMEVQYQQGADVNKMRERLDTLKIGDVQVQALGTNKHIMIRLPNKEGVTSAQLSNQVMDLLKKDSPDVTLRQVEFIGPQVGEE,not soluble
8,TTIVSVRRNGHVVIAGDGQATLGNTVMKGNVKKVRRLYNDKVIAGFAGGTADAFTLFELFERKLEMHQGHLVKAAVELAKDWRTDRMLRKLEALLAVADETASLIITGNGDVVQPENDLIAIGSGGPYAQAAARALLENTELSAREIAEKALDIAGDICIYTNHFHTIEELSYKAEFHHHHHH,soluble
9,TVQCKVTLLDGTEYSCDLEKHAKGQVLFDKVCEHLNLLEKDYFGLLFQESPEQKNWLDPAKEIKRQLRNLPWLFTFNVK,not soluble
10,VAERNSLAKTVYAIFVPLREGESQIAAEITPMRSERFGVDVLPGHPALSQIEDLMSDSWQSALGRQTGPFRRIHWAGQLAHAMERDDRYDVIFFDVGPSLGPFNRTVLLGCDAFVTPTATDLFSFHAFGNLARWFDAWVTQYAEIHEGNMAEWKKYSADVEAKTRPLRLGGFDGEGLRYLGYTTLEYVKRRANGQEQLVGAFERFRGRFAAEAERISNSLSKHSNSTLLGHVPHMHSMPATAQDVHAPIMELSSSDRVRGAQINQRNAYAEKINSVAANVYKALFPNE,not soluble
11,VCLEFQDCGVGLNAAQFKQLLISAVKDLFGEVDAALPLDILTYEEKTLSAILRICSSGLVKLWSSLTLLGSYKGKKCAFRVIQVSPFLLALSGNSRELVLD,not soluble
12,VDEPESMVNLAFVKNDSYEKGPDSVVVHVYVKEICRDTSRVLFREQDFTLIFQTRDGNFLRLHPGCGPHTTFRWQVKLRNLIEPEQCTFCFTASRIDICLRKRQSQRWGGLEAPAARVGGA,soluble
13,VETISFSFSEFEPGNNDLTLQGAAIITQSGVLQLTKINQNGMPAWDSTGRTLYTKPVHIWDMTTGTVASFETRFSFSIEQPYTRPLPADGLVFFMGPTKSKPAQGYGYLGVFNNSKQDNSYQTLAVEFDTFSNPWDPPQVPHIGIDVNSIRSIKTQPFQLDNGQVANVVIKYDASSKILLAVLVYPSSGAIYTIAEIVDVKQVLPEWVDVGLSGATGAQRDAAETHDVYSWSFHASLPETND,soluble
14,VEVLLGGDDGSLAFLPGDFSVASGEEIVFCNNAGFPHNVVFDEDEIPSGVDAAKISMSEEDLLNAPGECYKVTLTEKGTYKFYCSPHQGAGMVGKVTVN,soluble
15,VGKMTPDFLGSLSTTLSWKNLSLHIATDMRFGGLVASYSNLYGTQAGWIKSSLKWRDPEHGGLSWTSQYGDSKGISYGDGVIPDGVFKNGTFATLVDGTKMDVSGMSYKQLVAEGKLEPTHAGTYHVNRAAWGQNTIFDTWVHELNYIALREITLSYRFPKSVASKFGAQGLGLSFSARNLGYLYNSLPNHLNPESVRGNTASEFRIRGYEPYTANYMMTINVDF,not soluble
16,VGLIEKQKVQDSDFIEHKEVGLLISHDGIYFKFEPEQLAKHLVEFKSEQDQLIFGGVVQNSDYFFMVTSLGNIITVPIYKTLSNTKTKMNELLAKKPILMEDEKLVLAGIVNPDKME,soluble
17,VHVEDALTYLDQVKIRFGSDPATYNGFLEIMKEFKSQSIDTPGVIRRVSQLFHEHPDLIVGFNAFLP,soluble
18,VKKNGLGEIKSIYIDDNVSGSGFERRGIYELKRDVMEGKINLLVLKDLSRLGRNNAKTLLFLDFLEENGVRVVTFDGRYDSLKDNDIVGIETWFNERYILDISRKIRANLRFKIQKGEYIGHAPFGYEKSPYEKNRLIVNEEEAGIVRRIYSLYKEGYGYSYIAGILNSEGVKSPSNGRWNPTAIRRILLNRVYTGDTVQGVSEKISFKSKKTRRLPKERWVITENTHEPIVSKEEYEEIQRIRNNKNARPVPHKGIIHVFRGSIFCGGCGSVMFARKRHNRPMSYICSSYAKEGRTACTSHSIREKDLCEVVLDDVAKLLDDENMVNKILQKIDLAGAAEDYQTLREKLLKQMEAKQKQQEILYQDRLENKISESLFLRMNNRLENRISEIKREIAQLDLRKSEFVTSEEKIAKLKNYITNNGITNEIVKIVINRIIVFDKGDNYLEEKWNLNLSQKEKRYIELYGAVLIEYGF,soluble
19,VLEQAVYNARVMDIRDIEKESQEQAPEVEMVSELGSDVVVLDIRSAEEEDEKPLELDGVEVTHIPFFKLATKFGDLDQSKEYLLYCERGVMSRLQALLLIENGYKNVKVYRP,not soluble
20,VLIAGYLTDWRIMTTAQLRPIAPQKLHFSENLSVWVSDAQCRLVVSQPALDPTLWNTYLQGALRAYSKHGVECTLDLDAISDGSDTQLFFAAIDIGGDVVGGARVIGPLRSADDSHAVVEWAGNPGLSAVRKMINDRAPFGVVEVKSGWVNSDAQRSDAIAAALARALPLSMSLLGVQFVMGTAAAHALDRWRSSGGVIAARIPAAAYPDERYRTKMIWWDRRTLANHAEPKQLSRMLVESRKLLRDVEALSATTAATAGAEQ,not soluble
21,VPITPLLHESVARFAATGADITTRAEPDLFVSIDPDHLRRILTAVLDNAITHGDGEIAVTAHARDGAVDIGVRDHGPGFADHFLPVAFDRFTRADTARGGRGSGLGLAIVAALTTTHGGHANATNHPDGGAELRITLPTPRPPFHEELPRITSSDTKDPNREHDTSDQ,not soluble
22,VRAPGVRAADGAGRVVLYLHGGAFVMCGPNSHSRIVNALSGFAESPVLIVDYRLIPKHSLGMALDDCHDAYQWLRARGYRPEQIVLAGDSAGGYLALALAQRLQCDDEKPAAIVAISPLLQLAKGPKQDHPNIGTDAMFPARAFDALAAWVRAAAAKNMVDGRPEDLYEPLDHIESSLPPTLIHVSGSEVLLHDAQLGAGKLAAAGVCAEVRVWPGQAHLFQLATPLVPEATRSLRQIGQFIRDATADSSLSPVHRSRYVAGSPRAASRGAFGQSPI,not soluble
23,VRILATVAATAAAVAALITPAHADGPLGVKGDTLTLPLADAITALPVAEESRAGYQRSAFKHWVDADKDGCNTRSEVLKAEAVVAPEQGTRCKLSGGQWYSAYSNTYVNSASALDLDHLVPLAEGWDSGASAWTAKEREAYANDLGDDRSLIAVTAATNRSKADQDPAEWLPPYEPYHCQYLTDWIATKLRWQLTVDQAERDTLTQATTSCPNLPVEVTLAR,soluble
24,VSRDENSWLIDGATPLEEVTRVLDIAYFPDEENYETISGFMMYMLRKIPKKTDSVVYGKYKFEVIDTENFKIDQILVSLVKEQE,not soluble
25,VTNSTDGRADGRLRVVVLGSTGSIGTQALQVIADNPDRFEVVGLAAGGAHLDTLLRQRAQTGVTNIAVADEHAAQRVGDIPYHGSDAATRLVEQTEADVVLNALVGALGLRPTLAALKTGARLALANKESLVAGGSLVLRAARPGQIVPVDSEHSALAQCLRGGTPDEVAKLVLTASGGPFRGWSAADLEHVTPEQAGAHPTWSMGPMNTLNSASLVNKGLEVIETHLLFGIPYDRIDVVVHPQSIIHSMVTFIDGSTIAQASPPDMKLPISLALGWPRRVSGAAAACDFHTASSWEFEPLDTDVFPAVELARQAGVAGGCMTAVYNAANEEAAAAFLAGRIGFPAIVGIIADVLHAADQWAVEPATVDDVLDAQRWARERAQRAVSGMASVAIASTAKPGAAGRHASTLERS,soluble
26,VTPQYQATSTIYVLGNSVSMSGVDLTLSKQLTADFSVLAKSRPVMNKIEEKLKADYKYKDLNYSVEQLQGMITIENPSGTSLMRMTATNSDAQLAADIANAAADAVAERISEVMVIDKPSSVEEAEKPNYPVSPNVKKNM,not soluble
27,VTRPRPPLGPAMAGAVDLSGIKQRAQQNAAASTDADRALSTPSGVTEITEANFEDEVIVRSDEVPVVVLLWSPRSEVCVDLLDTLSGLAAAAKGKWSLASVNVDVAPRVAQIFGVQAVPTVVALAAGQPISSFQGLQPADQLSRWVDSLLSATAGKLKGAASSEESTEVDPAVAQARQQLEDGDFVAARKSYQAILDANPGSVEAKAAIRQIEFLIRATAQRPDAVSVADSLSDDIDAAFAAADVQVLNQDVSAAFERLIALVRRTSGEERTRVRTRLIELFELFDPADPEVVAGRRNLANALY,not soluble
28,VTTRDLTAAQFNETIQSSDMVLVDYWASWCGPCRAFAPTFAESSEKHPDVVHAKVDTEAERELAAAAQIRSIPTIMAFKNGKLLFNQAGALPPAALESLVQQLKAYEVEAGEATTQNGRAQQA,soluble
